Laboratory results published in a protein production outcome set (Wang et al. 2014).

Assay: label from the status in PepcDB records
With “MGHHHHHHSHMSYARVRAVVMTRDDSSGGWLPLGGSGLSSVTVFKVPHQEENGCADFFIRGERLRDKMVVLECMLKKDLIYNKVTPTFHHWKIDDKKFGLTFQSPADARAFDRGIRRAIEDISQGCPESK” the protein production was “not failed”. With “MGHHHHHHSHMTKIIPVASGKGGVGKTSFVANVGYKLSSLGKTVILVDLDLGGSNLHTCLGVKNKGVGIGSFINKKSKSFSDLVCKTSYDKLYLIPGDALYTGTANLPFSIKKKIIESIQKDLIADFIFLDLGSGTSYNTIDFYLASYSGVIVTIPETPSILNAYSFLKNALYRLLYLGFP” the protein production was “failed”. In the case of “MGHHHHHHSHMTKLPPIEQLLPHDKPMILVDRAMDIQQDTIHCQVDIAEHNPFFDSASQTVPAYVGIEFMAQSVAAWSGYHALMKEQAPPIGFLLGSRRYTSECDAFSRGQMLDVYAEKVMEDNGMAVFSARIELQGTVVATCQLNVYVPSEEKLQEMKIRSQQ”, the protein production is reported as “not failed”. In the case of “MGHHHHHHSHNSSSCPEIQGFLHVKELGKKSWKKLYVCLRRSGLYCSTKGTSKEPRHLQLLADLEDSNIFSLIAGRKQYNAPTDHGLCIKPNKVRNETKELRLLCAEDEQTRTCWMTAFRLLKYGMLLYQNYRIPQQRKALLSPFSTPVRSVSENSLVAMDFSGQTGRVIENPAEAQSAALEEGHAWRKRSTRMNILGSQSPLHPSTLSTVIHRTQ”, the protein production is reported as “failed”. For “MGHHHHHHSHPAEYNISPETRRAQAERLAIRAQLKREYLLQYNDPNRRGLIENPALLRWAYARTINVYPNFRPTPKNSLMGALCGFGPLIFIYYIIKTERDRKEKLIQEGKLDRTFHLSY”, the protein production was “failed”. With “MGHHHHHHSHRPESFFQQSFQRLSRLGHGSYGEVFKVRSKEDGRLYAVKRSMSPFRGPKDRARKLAEVGSHEKVGQHPCCVRLEQAWEEGGILYLQTELCGPSLQQHCEAWGASLPEAQVWGYLRDTLLALAHLHSQGLVHLDVKPANIFLGPRGRCKLGDFGLLVELGTAGAGEVQEGDPRYMAPELLQGSYGTAADVFSLGLTILEVACNMELPHGGEGWQQLRQGYLPPEFTAGLSSELRSVLVMMLEPDPKLRATAEALLALPVLRQPRAWGVLWCMAAEALSRG” the protein production was “failed”. In the case of “MGHHKAMPYADVAAFIIELRKREAVAATALEFTILTAARSGETLGAKWHEIDWKDKIWTVPAERMKAAREHRVPLSSRTITILKKLAEFGSDENSFVFPGQKPGKPLSVMAMDMVLRRMEVDVTVHGFRSSFRDWCGEVSNFPRDVAEAALAHVVGDKTERAYRRGDALEKRRKLMAAWEKFCIAEIKKNPLEHHHHHH”, the protein production is reported as “failed”. For “MGIENFTAKIVGLSIVSLLVVLMFLYKLIYIIPLIFIVLLVFQSEKKIFAFLSKNTKQIQPYSIEDGVFYNEKNASAVLIIDDIQMDYKDFTNSNLRSFISSFHKILDIAKDINIVLKRESLDKNVYIESLSQKIQALRIMIDSDPSNEKAKRKLELMETIISRIESGENPFRYEMYIIINSRDKNSALSTASMIRQGLEGLGIKTRLATLHEIQKLVRDFFHSKLNLNKIALPTQIPYLTPISVEKKPKSSIIIDGVLLGKDINNNGLVFWNITKSQNSHLLIVGPTGSGKTEFLIWLSTILNLIYGGTVILFDVKGDIKYRLSMYKVPFQLINPLFYRLGLLDEYDIPIRIKLLQIEKILLNSFRLSKFNSSILYNYLNRLIDISYLKYRIKWKDLEKYLSEIDDVQLKYYLSKLINILSSMEDSELPPLLHGVNENEINLIDLTLIKSEEIKRLIIYTLIQELYNKFSLEKIYDKPRVFLVLDEAWTILKNESEDYPIVADLIKRGRGYGISIIMATQNLEDLGDLANIYLDNIGVSVFMNNGDKKFWEEIRRFVNVDNDTLSNNLIFMNRGEALVRFLGDPRPVIIKLNTLAGSSF”, the protein production was “failed”. For “MGIFERYLSVWVGLSIILGVILGLWQPNIFQLITEFEIAHVNIVVAVFIWVMIYPMMVQIDFSSIQNVGKNPKGLVLTIIINWFVKPFTMAALGWLFFNYLFADLVDPESAQEYIAGMILLGVAPCTAMVFVWSQLTKGDPNYTLVQVSVNDVIMIFAFAPISAFLLGVSDIQVPWETLLISVLLYVLLPLIAGVVTRRMLNKGNDKVDAQKSAEASINADEETNTNTDSTNKSLDNLLATLKPWSVIGLLATVVLLFGFQANTIISEPQTIGLIAIPLMIQTYGIFIIAYLAAKWLKLPHNIAAPACLIGTSNFFELAVAVAISLFGLHSGAALATVVGVLVEVPVMLSLVYFINHTQNWFVEGG”, the protein production was “failed”. In the case of “MGIKNDLEIRLQKLQQQGNFKNYLEQYPTDASTAAYFLIEIYNDGNIGGRSVIDAGTGNGILACGSYLLGAESVTAFDIDPDAIETAKRNCGGVNFMVADVSEISGKYDTWIMNPPFGSVVKHSDRAFIDKAFETSMWIYSIGNAKARDFLRREFSARGDVFREEKVYITVPRIYRHHSYDRARIEAVIFGVRNHSF”, the protein production is reported as “not failed”. In the case of “MGISPDAASKLYTVKFQPDPIDKKGWSVIDFNNCCTQDGGWYLNMGWGVESLIDNNPGTQWLCRWDVKEPLPYYFVFDMGKEYTLFRFGFANPVAPAAHVWAGTSKAGYVEASIDNENWVKLKDWTSPKIGEPNVNMDVPATQARYIRFVITDTYPTYDGLRVSLGEVYAWGLEHHHHHH”, the protein production is reported as “not failed”. For “MGISTNHTTFDGLSFKTFLENLASLLHEKPLSTPPCNDRTLLKARDPPSVAFPHHELVKFQDCETTTVFEATSEHLDFKIFKLSSEQIKKLKERASETSNGNVRVTGFNVVTALVWRCKALSVAAEEGEETNLERESTILYAVDIRGRLNPELPPSYTGNAVLTAYAKEKCKALLEEPFGRIVEMVGEGSKRITDEYARSAIDWGELYKGFPHGEVLVSSWWKLGFAEVEYPWGKPKYSCPVVYHRKDIVLLFPDIDGDSKGVYVLAALPSKEMSKFQHWFEDTLC”, the protein production was “failed”. In the case of “MGKEERAKWVNDEYAKAYEKMKSYGEQVKKADKPRVLYLKRSDLTLQGNDNFIKESMELAGADNIAAEAKSITMEEILKLDPEIILLSDFDKFLPQDLYENRIEGQDWSSVSAVVNKRVYKTPVGIYRWDAPGVETPLMMFWLGKMLQPEILEHHHHHH”, the protein production is reported as “failed”. With “MGKEIEIERKTLVSKETFKRLISQLHIGEGDFKLQRNHYFETDDFQLKKQSSALRIREKEAIFTFTLKQPHPAGLLETNQTLSKQEAKLALESAHFPSGEVMDALRDLSIPISQLKHIGTLSTSRAEISYEQGILCLDHSSYLGIEDYEIEFEGTSEEHATVTFQEILKTFSISQVPTENKIQRFFSKKEKN” the protein production was “not failed”. With “MGKGKSAIESQIRMLKLAKEIVEEVASSFPNLEEVYIFGSRARGDYLDTSDIDILFVFKGIKEMNVFDRMYMVSRFIRGNVDYIVLDEGEKDRVKDKVLFWKREKGFVLL” the protein production was “not failed”. For “MGKNLKGKELGKGLYQRKDGRYEARIFVRGTGKTFSIYGTNLQHLKKERNAYLANVSPGIAGYDPRISVSKWYEKWMLIYVVHSVKATTLSNYVNGFERVREYIGYMRLIEVRPTHILDMIKGLEEEGYARTTVIQSLSVVRQLFKKAYGGKMIPIDPVADIKLPKEEPGEIPDEKIMQEQEDEKCLSIYDTHRFLESCKNTRYYELFFILLHTGLRIGEALALEWCDLDFKHEKLRVYKTLNRVTKYYDLKGNELPERYSTIQITTPKKSASNRKVPLTDAVIAAFMSWKEKQDRDKEKLGKNWGKPNILLKKYPGLIFTTSSGRSYLPSSAQTECRRIVGIVNKHEIALAEKENRDPNLMDVHPHIFRHTFVTRCIQSGMDAATVKKIAGHSDEKMTNYYTHIEEEHIDDEYELYIQKYGTET”, the protein production was “failed”. In the case of “MGLASMESWIDLLEWPAMLVTVVAAWCIGSHRPGRRMVGFCCFIASNILWSVWGWHAQAWALIVLQLVLCLMNLRGWRKNKRASRKAPSEKVQGGADATPYHLLTSTSRGQPENPS”, the protein production is reported as “failed”. In the case of “MGLFTDGFKLLKKASEPLYKTPKSIQETIEIMAVAENGIFEVSKNKYSKCYRFQDINYTTATEDEQIGIFERYCKFLNSLDCNYKITINNKNKNMDELRDKVLIAEKNDGFNNYRRIYNDIIEEKIIEGRQGIEQERYLTITIERKNFEEAKAQFATLEATIHKAFIELGAEIVPLNGNERLKVLYDYYHLGDEGSFDFDIKKAKKVGADFRNDLCNGMVKYFPDHFEDESKFCKALFIKKYPSSLSDRFINEITSLPVHSITSIDVVPVPKDLTTKVLQKKYLGIESDIIKQQRVRNKNNDFSTEISYAKRTEKKEIEEIMDDVRENDQCLFFVGVTIILMAESKKELESVCETVETIGKRNSCTIDTHYLKQREALNTALPIGVRQVETMRTLLTQSLAVLMPFNVQELNDSTGNYYGINQISKNVNIGNRKKLINGNGFVFGVPGSGKSFFCKMEMGSVFLSGDDEIIVIDPMNEYFDIAETYGGTVVNMSTYTDNYVNPLEMDVWSLDPNDSKGMVREKGEFMLGLCEQCIGDSLNSRQKSIIDRCVRKLYIDIARSKEKYIPVMSDFYDILMAQPEDEAKDIALSLELFVNGSLNIFNHQTNVDVDNRFTVYGIRDLGTELSPITMLVMMESIQNRIVENGKRGKATWLYIDEFHVLLNSEYSAKYLQQLWKKVRKQGGLCTGITQNVVDLLQNYTATTMLANSEFVALLKQANTDSSKMAEVIGVSEAQLRFVTNTASGMGLIKCGSVVIPFDNQISKDTDLYKLYNTNIHEIIEMKKHANEKNVNSL”, the protein production is reported as “failed”. In the case of “MGLGRQSLNIMTFSGQELTAIIKMAKSMVMADGKIKPAEIAVMTREFMRFGILQDQVDLLLKASDSIEASQAVALIARMDEERKKYVASYLGVIMASDGDIDDNELALWTLISTLCGLPTMTVMEAINNMKNL”, the protein production is reported as “not failed”. For “MGLKSNSAILPKALFCWSGGKDSAYCLHKVLLEKQFDVCYLLTTVNDTFKRISMHGVRETLLDKQTESIGIPCIKIRIKEGTNSEYEQLMETTLLKAKEEGITHVIFGDIFLEDLRTYRENNLDKVGLQAVFPLWKMDTGILIRDFIRKKFKTILCCINDGYLDETWAGREIDAVFIAQLPGHVDPCGENGEYHTFCYDGPLFQKAITVSTGEKIYKPLDYSLDDVCQSTVPTKGFWYCDLIPD”, the protein production was “failed”. For “MGLSRVRAVFFDLDNTLIDTAGASRRGMLEVIKLLQSKYHYKEEAEIICDKVQVKLSKECFHPYSTCITDVRTSHWEEAIQETKGGADNRKLAEECYFLWKSTRLQHMILADDVKAMLTELRKEVRLLLLTNGDRQTQREKIEACACQSYFDAIVIGGEQKEEKPAPSIFYHCCDLLGVQPGDCVMVGDTLETDIQGGLNAGLKATVWINKSGRVPLTSSPMPHYMVSSVLELPALLQSIDCKVSMSV”, the protein production was “not failed”. With “MGLSVGIVGLPNVGKSSTFNALTKTQNAQSANYPFCTIEPNKAIVNVPDRRLDALAQIVKPERILHSVVEFVDIAGLIKGASKGEGLGNQFLANIKECEVILQVVRCFEDDNITHVNDKIDPLNDIETIELELILADIAALDKRIDRLQKALKSSKDAKNLLECALSLKTHLEELKPAKTFPLNTSEAFLELDKELRFLSHKKMIYVANVGEEDLNALNEHAKKVKNHAKEQNSEFVALCAKLEEEMVSMSGDEVKEFLQSLGVEESGLEKTIRLSFKELGLINYFTAGVKEVRSWTIKKGSSAPVAAGVIHKDFEKGFIRAETISYDDFIAYKGEAGAKEKGALRIEGKDYIVQDGDVLHFRFNI” the protein production was “failed”. With “MGMKDVFKRYLVFVIGLYFLAAGIVLIVRSALGTTPISSVNYVLSLNSPLSLGTCTFLINMLLILGQFWVIRKNKTRQDTIEILLQLPFSFIFSAFIDFNMALTSNLHPDNYGMSIALLLTGCMIQSIGVVLELKPKVAMMSAEAFVKYASRRYNKEFGKFKVCFDVTLVTLAVILSLLLSQCIEGVREGSLIAACITGYIVSFLNQKIMTRKTLYKLLPVLK” the protein production was “failed”. With “MGMVFGKIAVETPKYTVTKSGDGYEIREYPPAVAAEVTYDASEFKGDKDGGFQLLAKYIGVFGKPENEKPEKIAMTAPVITKEGEKIAMTAPVITKESEKIEMTSPVVTKEGGGEGRKKLVTMQFLLPSMYKKAEEAPRPTDERVVIKEEGGRKYGVIKFSGIASESVVSEKVKKLSSHLEKDGFKITGDFVLARYNPPWTLPPFRTNEVMIPVE” the protein production was “failed”.
